Article PMC5658516 (Cell Chemical Biology, 2017)

Biological target: T1, His10-Ub-Ub WT (UniProt P0CG48 1-76; P0CG48 1-76)
T1 construct: ubiquitin, distal moiety; ubiquitin, proximal moiety; two ubiquitins head to tail on one chain; also called linear diUb; M1-linked diUb; source: E. coli BL21-CodonPlus (DE3)-RIPL, purified (HisTrap, desalting); not shown: His10, N-terminal, kept
Assay: pull-down; 20 μg OTULINcat-ST with equimolar His10-diUb in PBS, 0.1% BSA, 5% glycerol, 0.1% Triton-X, 2 h 4 °C; OTULINcat-ST held on Strep-Tactin Sepharose, eight washes with 0.5% Triton-X; western blot
Settings: both partners purified

binding result: binds
B1: OTULINcat-Strep-tag II C129A (domain or fragment, UniProt Q96BN8 80-352, looked up)
chain: LSVAPEMDIMDYCKKEWRGNTQKATCMKMGYEEVSQKFTSIRRVRGDNYAALRATLFQAMSQAVGLPPWLQDPELMLLPEKLISKYNWIKQWKLGLKFDGKNEDLVDKIKESLTLLRKKWAGLAEMRTAEARQIACDELFTNEAEEYSLYEAVKFLMLNRAIELYNDKEKGKEVPFFSVLLFARDTSNDPGQLLRNHLNQVGHTGGLEQVEMFLLAYAVRHTIQVYRLSKYNTEEFITVYPTDPPKDWPVVTLIAEDDRHYNIPVRVCEETSL
notes: also called OTULINcat C129A; OTULIN C129A; source: E. coli BL21-CodonPlus (DE3)-RIPL, purified (StrepTrap, desalting); not shown: Strep-tag II, C-terminal, kept
